Biological target: T1, recombinant human (rh) CD16A protein conjugated with APC fluorophore (human, UniProt P08637 17-208, APC fluorophore conjugate)
T1 construct: also called APC-tagged rhCD16A
Experiment: 'sandwich' flow cytometry: NB-EBC1 cells incubated with cSN, then stained with APC-conjugated rhCD16A
Procedure: FIGS. 3A-E. Production and binding characterization of BICEs. (FIG. 3A) Flow cytometry histograms showing His-tag cell surface expression in neuroblastoma cells incubated with concentrated supernatants (cSNs) from CAR constructs (CAR.GPC2, CAR.GPC2-BiCE.GD2 or CAR.GPC2-BICE.CD19) or 1×PBS and then stained with phycoerythrin (PE)-tagged anti-His-tag antibody. Neuroblastoma cells with high (NB-EBC1 and SMS-SAN) and low (SY5Y) GD2 expression were selected. Leukemia (NALM6) cells with high CD19 were utilized as controls. (FIG. 3B) Concentration-dependent binding of CAR.GPC2-BICE.GD2 cSN in GD2-high NB-EBC1 cells. (FIG. 3C) Binding competition assay between FDA-approved anti-GD2 antibody dinutuximab and CAR.GPC2-BiCE.GD2 cSNs. (FIG. 3D) Graphical scheme of the “sandwich” binding assays where GD2-expressing neuroblastoma cells were incubated with bicistronic vector cSNs and then stained with recombinant human (rh) CD16A protein previously conjugated with APC fluorophore. (FIG. 3E) Flow cytometry histograms showing CD16A sdAb APC staining in GD2-positive cells incubated with GPC2.CAR-GD2.BiCE cSN but not with control vector cSN (GPC2.CAR-CD19.BiCE).
Next, to study whether BiCEs might produce a molecular synapsis between GD2-expressing cells and CD16a, a “sandwich” binding assay was developed as illustrated in FIG. 3D. […]

T1 sequence (P08637 17-208 limits assumed): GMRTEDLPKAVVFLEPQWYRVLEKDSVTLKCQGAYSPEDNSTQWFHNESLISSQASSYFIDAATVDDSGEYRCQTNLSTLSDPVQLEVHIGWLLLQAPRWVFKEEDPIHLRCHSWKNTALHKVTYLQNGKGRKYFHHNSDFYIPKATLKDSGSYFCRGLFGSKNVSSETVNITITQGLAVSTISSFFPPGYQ

B1: GD2-targeted bispecific innate immune cell engager (GD2 scFv 14g2a linked to CD16A single-domain antibody sdA1, His-tagged) (bispecific antibody)
chain: DILLTQTPLSLPVSLGDQASISCRSSQSLVHRNGNTYLHWYLQKPGQSPKLLIHKVSNRFSGVPDRFSGSGSGTDFTLKISRVEAEDLGVYFCSQSTHVPPLTFGAGTKLELKGSTSGSGKPGSGEGSTKGEVKLQQSGPSLVEPGASVMISCKASGSSFTGYNMNWVRQNIGKSLEWIGAIDPYYGGTSYNQKFKGRATLTVDKSSSTAYMHLKSLTSEDSAVYYCVSGMEYWGQGTSVTVSSGSTSGSGKPGSGEGSTKGEVQLVESGGGLVQPGGSLRLSCAASGFTFSNYGMSWVRQAPGKGLEWIGSIYYSGSTNYNPSLKSLVTISRDNSKNTLYLQMNSLRAEDTATYYCARESIDYWGQGTLVTVSSHHHHHH
notes: Used as concentrated supernatant (cSN) of HEK 293T cells transfected with the bicistronic GPC2.CAR-GD2.BiCE vector; also called GD2 BiCE; GD2.BiCE
B1: binds.
